Results: patent US20240116985A1 (published 2024)
Each block holds one binder with its values, some of them ahead of it. Starred links: 1 amine or outer side, 2 acyl side, 3 side chain; linkers in the order of their positions; H or OH if unused. Positions of bridges follow the written chain, without caps; N, C: chain ends. Non-standard residues stand in square brackets, D forms with d. Primed or numbered codes have the meaning given here. *: point of attachment. B5(10) = 2-amino-2-(pent-4-en-1-yl)hept-6-enoic acid, bis(4-pentenyl)glycine, stitching residue bearing both staples, C=CCCCC(CCCC=C)(N[*:1])C(=O)[*:2]; B5(5) = 2,2-bis(4-pentenyl)glycine, 2-amino-2-(pent-4-en-1-yl)hept-6-enoic acid (stitching residue), C=CCCCC(CCCC=C)(N[*:1])C(=O)[*:2]; PyrS2 = (S)-3-amino-1-((pent-4-en-1-yloxy)carbonyl)pyrrolidine-3-carboxylic acid, C=CCCCOC(=O)N1CC[C@@](N[*:1])(C(=O)[*:2])C1; Bta = N[C@@H](Cc1csc2ccccc12)C(=O)O; αAllylPro = C=CC[C@@]1(C(=O)O)CCCN1; S8 = C=CCCCCCC[C@](C)(N)C(=O)O; Ms = CS(=O)(=O)*

How the values were obtained:
[1] = target: T1, full-length beta-Catenin (Uniprot ID P35222) (Homo sapiens (Human), UniProt P35222 2-781); test: fluorescence polarization competition; full-length beta-catenin + 5FAM-TCF4(10-53) probe; peptide titrated
T1 construct: The fluorescence polarization protocol says only 'full-length'; also called bCat; B-Catenin
T1 sequence: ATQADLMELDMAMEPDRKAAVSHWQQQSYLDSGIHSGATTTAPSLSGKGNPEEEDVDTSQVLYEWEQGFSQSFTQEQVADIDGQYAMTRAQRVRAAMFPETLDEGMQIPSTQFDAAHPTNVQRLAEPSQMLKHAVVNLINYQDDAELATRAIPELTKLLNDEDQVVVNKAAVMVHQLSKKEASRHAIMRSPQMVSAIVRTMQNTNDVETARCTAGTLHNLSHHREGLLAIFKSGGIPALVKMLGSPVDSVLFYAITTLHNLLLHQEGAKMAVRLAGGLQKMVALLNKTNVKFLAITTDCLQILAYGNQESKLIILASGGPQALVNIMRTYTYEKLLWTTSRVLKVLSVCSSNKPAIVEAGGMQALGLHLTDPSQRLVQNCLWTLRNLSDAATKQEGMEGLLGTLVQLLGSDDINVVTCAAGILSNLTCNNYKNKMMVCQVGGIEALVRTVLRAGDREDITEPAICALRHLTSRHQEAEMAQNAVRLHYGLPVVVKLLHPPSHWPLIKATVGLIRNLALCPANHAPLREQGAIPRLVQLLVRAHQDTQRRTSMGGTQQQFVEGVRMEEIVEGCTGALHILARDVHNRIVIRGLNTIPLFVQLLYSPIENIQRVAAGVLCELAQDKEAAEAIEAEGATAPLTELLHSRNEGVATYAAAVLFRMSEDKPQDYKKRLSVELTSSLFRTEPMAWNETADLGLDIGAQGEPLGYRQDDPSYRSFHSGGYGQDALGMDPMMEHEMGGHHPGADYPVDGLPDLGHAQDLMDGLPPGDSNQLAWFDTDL
Protocol: (§1) The plate was incubated protected from light for 60 minutes at 20° C. prior to read. Reads were performed on a CLARIOstar plate reader (BMG Labtech) in duplicate, and data were fitted to a 1:1 binding model with hill slope using an in-house script. All provided concentrations are final concentrations.

[2] = target: T2, full-length beta-Catenin (Uniprot ID P35222) (Homo sapiens (Human), UniProt P35222 1-781); test: fluorescence polarization competition against 5FAM-TCF4(10-53) on full-length beta-catenin
T2 construct: also called bCat
T2 sequence: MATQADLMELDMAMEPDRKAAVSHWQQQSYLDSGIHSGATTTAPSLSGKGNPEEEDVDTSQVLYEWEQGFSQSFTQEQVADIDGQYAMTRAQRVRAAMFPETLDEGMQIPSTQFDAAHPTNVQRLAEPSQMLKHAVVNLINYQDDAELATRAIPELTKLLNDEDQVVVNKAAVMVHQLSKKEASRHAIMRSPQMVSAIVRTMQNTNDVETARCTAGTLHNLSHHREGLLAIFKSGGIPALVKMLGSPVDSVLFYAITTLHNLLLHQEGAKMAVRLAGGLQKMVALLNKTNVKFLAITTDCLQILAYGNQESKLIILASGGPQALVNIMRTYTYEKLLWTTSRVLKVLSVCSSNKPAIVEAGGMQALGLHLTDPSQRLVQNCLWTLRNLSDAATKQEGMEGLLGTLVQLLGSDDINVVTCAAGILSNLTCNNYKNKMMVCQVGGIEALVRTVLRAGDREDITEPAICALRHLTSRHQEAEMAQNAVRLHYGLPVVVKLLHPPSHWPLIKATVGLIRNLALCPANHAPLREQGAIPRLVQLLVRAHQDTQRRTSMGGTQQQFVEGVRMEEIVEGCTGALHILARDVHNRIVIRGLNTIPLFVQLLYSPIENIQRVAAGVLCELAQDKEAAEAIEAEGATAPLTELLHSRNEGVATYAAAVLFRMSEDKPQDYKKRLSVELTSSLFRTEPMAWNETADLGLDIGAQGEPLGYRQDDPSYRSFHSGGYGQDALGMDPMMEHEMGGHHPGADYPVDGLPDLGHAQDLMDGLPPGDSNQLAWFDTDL
Protocol: as §1

[3] = target: T3, full-length beta-Catenin (Uniprot ID P35222) (Homo sapiens (Human), UniProt P35222 2-781); test: fluorescence polarization competition; full-length beta-catenin + 5FAM-TCF4 10-53 probe
T3 construct: The FP protocol says 'full-length beta-Catenin (Uniprot ID P35222)'; also called bCat; B-Catenin
T3 sequence: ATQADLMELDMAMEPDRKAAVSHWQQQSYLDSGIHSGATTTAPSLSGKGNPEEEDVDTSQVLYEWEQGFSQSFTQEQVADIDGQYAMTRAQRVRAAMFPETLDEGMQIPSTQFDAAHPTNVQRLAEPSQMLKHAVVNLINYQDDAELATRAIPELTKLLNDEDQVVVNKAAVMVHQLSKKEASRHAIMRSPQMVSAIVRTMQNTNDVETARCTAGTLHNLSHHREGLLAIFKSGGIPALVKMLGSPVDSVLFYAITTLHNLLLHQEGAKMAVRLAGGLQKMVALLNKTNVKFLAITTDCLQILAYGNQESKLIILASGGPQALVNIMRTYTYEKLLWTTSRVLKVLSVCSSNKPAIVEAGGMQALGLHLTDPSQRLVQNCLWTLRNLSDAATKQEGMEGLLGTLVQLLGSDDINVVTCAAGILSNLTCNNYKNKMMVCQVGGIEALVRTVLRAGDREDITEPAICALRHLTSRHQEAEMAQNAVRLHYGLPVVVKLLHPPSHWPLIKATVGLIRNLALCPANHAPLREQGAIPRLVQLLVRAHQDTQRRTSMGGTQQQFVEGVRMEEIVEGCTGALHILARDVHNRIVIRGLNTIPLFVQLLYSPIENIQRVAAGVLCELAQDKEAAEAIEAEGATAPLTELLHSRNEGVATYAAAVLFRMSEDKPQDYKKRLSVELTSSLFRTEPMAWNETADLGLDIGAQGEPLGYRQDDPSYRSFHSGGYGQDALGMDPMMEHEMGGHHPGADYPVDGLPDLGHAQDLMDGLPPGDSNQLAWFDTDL
Protocol: as §1

[4] = target: T4, full-length beta-Catenin (Uniprot ID P35222) (Homo sapiens (Human), UniProt P35222 1-781); test: fluorescence polarization competition; displacement of 5FAM-TCF4(10-53) from full-length beta-catenin
T4 construct: also called bCat; B-Catenin
T4 sequence: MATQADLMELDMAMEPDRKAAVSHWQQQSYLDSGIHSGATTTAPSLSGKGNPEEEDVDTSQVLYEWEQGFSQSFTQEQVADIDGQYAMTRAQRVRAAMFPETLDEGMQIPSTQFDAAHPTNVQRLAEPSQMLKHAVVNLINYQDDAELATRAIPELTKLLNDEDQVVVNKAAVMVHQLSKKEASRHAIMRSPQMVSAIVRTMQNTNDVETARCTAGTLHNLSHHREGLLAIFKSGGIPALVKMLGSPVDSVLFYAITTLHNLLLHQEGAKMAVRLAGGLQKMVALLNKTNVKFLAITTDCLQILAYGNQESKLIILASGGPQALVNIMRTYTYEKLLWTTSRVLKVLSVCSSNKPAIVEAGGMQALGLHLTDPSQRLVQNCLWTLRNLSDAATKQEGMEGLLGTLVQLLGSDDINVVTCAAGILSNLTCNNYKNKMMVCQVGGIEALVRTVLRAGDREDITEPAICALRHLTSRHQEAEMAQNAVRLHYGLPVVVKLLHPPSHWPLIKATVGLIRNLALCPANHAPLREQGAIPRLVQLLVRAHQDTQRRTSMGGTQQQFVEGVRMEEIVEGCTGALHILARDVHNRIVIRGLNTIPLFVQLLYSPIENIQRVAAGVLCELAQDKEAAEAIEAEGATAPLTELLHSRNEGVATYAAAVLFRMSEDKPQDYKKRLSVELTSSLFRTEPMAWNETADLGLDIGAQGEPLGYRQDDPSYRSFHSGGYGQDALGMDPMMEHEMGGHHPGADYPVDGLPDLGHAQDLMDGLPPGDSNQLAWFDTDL
Outline: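 Plate incubated 60 minutes at 20° C. protected from light before reading. Concentrations given are final.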

B-cat-Halo = target: T5, B-cat-Halo (UniProt P35222 1-781); test: cell-based or functional assay
T5 sequence (looked up): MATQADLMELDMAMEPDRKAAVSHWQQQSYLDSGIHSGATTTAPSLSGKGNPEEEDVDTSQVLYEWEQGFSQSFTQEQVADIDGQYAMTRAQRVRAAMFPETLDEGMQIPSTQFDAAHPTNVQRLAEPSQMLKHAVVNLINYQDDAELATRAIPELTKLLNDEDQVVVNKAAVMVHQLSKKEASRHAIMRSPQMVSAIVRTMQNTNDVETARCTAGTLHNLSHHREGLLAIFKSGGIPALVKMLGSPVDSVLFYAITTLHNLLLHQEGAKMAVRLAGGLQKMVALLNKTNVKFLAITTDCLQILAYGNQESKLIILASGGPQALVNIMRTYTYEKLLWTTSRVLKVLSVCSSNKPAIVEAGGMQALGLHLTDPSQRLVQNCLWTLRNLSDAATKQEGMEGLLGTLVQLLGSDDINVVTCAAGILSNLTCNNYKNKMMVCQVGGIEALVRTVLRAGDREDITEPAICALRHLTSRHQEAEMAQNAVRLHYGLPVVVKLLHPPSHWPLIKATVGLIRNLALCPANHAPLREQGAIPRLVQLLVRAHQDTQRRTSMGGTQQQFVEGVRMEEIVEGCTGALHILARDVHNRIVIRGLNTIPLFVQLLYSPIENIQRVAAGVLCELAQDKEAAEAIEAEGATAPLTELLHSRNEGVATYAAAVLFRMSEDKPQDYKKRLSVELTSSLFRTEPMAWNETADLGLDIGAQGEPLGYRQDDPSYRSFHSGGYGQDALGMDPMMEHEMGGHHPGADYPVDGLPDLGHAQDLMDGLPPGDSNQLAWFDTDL

B1: I-710 (peptide)
peptide: Ms-[αAllylPro]DI[B5(5)]DEAAFQ[S8]F[Bta]Q-NH2
modifications: staple 1-4, 4-11
notes: Stapled peptide composition; also called MeSO2-PL3-Asp-Ile-B5-Asp-Glu-Ala-Ala-Phe-Gln-S8-Phe-BztA-Gln-NH2
EC50 [1]: 0.073 µM

B4: I-567 (peptide)
peptide: XDVXDDAAFNXFXQ
modifications: not fully specified; Ac-PL3-Asp-Val-B5-Asp-Asp-Ala-Ala-Phe-Asn-S8-Phe-BztA-Gln-NH2; N-terminal acetyl, C-terminal amide; non-natural: PL3(1), B5(4), S8(11), BztA(13); staples PL3(1)-B5(4) and B5(4)-S8(11)
EC50 [4]: 0.037 µM
NanoBRET % inh @ 10 uM (B-cat-Halo): 8.9%

Continued, values first:

IC50 [2]: 10 µM
B2: I-1287 (peptide)
peptide: Ac-[αAllylPro]NA[B5(10)]DTAAFL[PyrS2]F[Bta]Q-NH2
modifications: staple 1-4, 4-11; not fully specified; printed as Ac-PL3-Asn-Ala-B5-Asp-Thr-Ala-Ala-Phe-Leu-PyrS2-Phe-BztA-Gln-NH2
notes: Stapled peptide

IC50 [3]: 10 µM
B3: I-1295 (peptide)
peptide: Ac-[αAllylPro]DA[B5(10)]NTAAFL[PyrS2]F[Bta]Q-NH2
modifications: staple 1-4, 4-11; not fully specified; printed as Ac-PL3-Asp-Ala-B5-Asn-Thr-Ala-Ala-Phe-Leu-PyrS2-Phe-BztA-Gln-NH2
notes: earlier eluting HPLC peak (staple isomer composition); also called Ac-PL3-Asp-Ala-B5-Asn-Thr-Ala-Ala-Phe-Leu-PyrS2-Phe-BztA-Gln-NH2
